According to patent publication US20250213684A1, “COMBINATION THERAPIES COMPRISING ANTIBODY MOLECULES TO TIM-3” (Novartis AG, priority 2015, published 2025):

Columns and labels:
huTIM-3/his (human) [1] = biological target: huTIM-3/his (human) (UniProt Q8TDQ0); assay: Biacore, 2nd antibody injection; 1st antibody (competitor) huIgG1
huTIM-3/his (human) [2] = biological target: huTIM-3/his (human) (UniProt Q8TDQ0); assay: Biacore, 2nd antibody injection; 1st antibody (competitor) ABTIM3-hum03
huTIM-3/his (human) [3] = biological target: huTIM-3/his (human) (UniProt Q8TDQ0); assay: Biacore, 2nd antibody injection; 1st antibody (competitor) ABTIM3-hum11
huTIM-3/his (human) [4] = biological target: huTIM-3/his (human) (UniProt Q8TDQ0); assay: Biacore, 2nd antibody injection; 1st antibody (competitor) ABTIM3-hum21
huTIM-3/his (human) [5] = biological target: huTIM-3/his (human) (UniProt Q8TDQ0); assay: Biacore, 1st antibody injection on hTIM-3/his captured by anti-His antibody

Question: For human IgG1 isotype control (antibody), which change in RU (huTIM-3/his (human) [1]) is on record?
Answer: The change in RU was 3.6 RU.

Question: And the change in RU (huTIM-3/his (human) [2])?
Answer: The change in RU was 4.5 RU.

Question: What about the change in RU (huTIM-3/his (human) [3]) of the same substance?
Answer: The change in RU was 3.8 RU.

Question: And the change in RU (huTIM-3/his (human) [4])?
Answer: Its change in RU is 4.5 RU.

Question: And the change in RU (huTIM-3/his (human) [5])?
Answer: Its change in RU is 0.27 RU.
